{
  "source": "patent US20220289850",
  "about": "(published 2022)",
  "key": {"human integrin avb8": {"target": "T1, human integrin avb8 (human)", "T1 chain 1": "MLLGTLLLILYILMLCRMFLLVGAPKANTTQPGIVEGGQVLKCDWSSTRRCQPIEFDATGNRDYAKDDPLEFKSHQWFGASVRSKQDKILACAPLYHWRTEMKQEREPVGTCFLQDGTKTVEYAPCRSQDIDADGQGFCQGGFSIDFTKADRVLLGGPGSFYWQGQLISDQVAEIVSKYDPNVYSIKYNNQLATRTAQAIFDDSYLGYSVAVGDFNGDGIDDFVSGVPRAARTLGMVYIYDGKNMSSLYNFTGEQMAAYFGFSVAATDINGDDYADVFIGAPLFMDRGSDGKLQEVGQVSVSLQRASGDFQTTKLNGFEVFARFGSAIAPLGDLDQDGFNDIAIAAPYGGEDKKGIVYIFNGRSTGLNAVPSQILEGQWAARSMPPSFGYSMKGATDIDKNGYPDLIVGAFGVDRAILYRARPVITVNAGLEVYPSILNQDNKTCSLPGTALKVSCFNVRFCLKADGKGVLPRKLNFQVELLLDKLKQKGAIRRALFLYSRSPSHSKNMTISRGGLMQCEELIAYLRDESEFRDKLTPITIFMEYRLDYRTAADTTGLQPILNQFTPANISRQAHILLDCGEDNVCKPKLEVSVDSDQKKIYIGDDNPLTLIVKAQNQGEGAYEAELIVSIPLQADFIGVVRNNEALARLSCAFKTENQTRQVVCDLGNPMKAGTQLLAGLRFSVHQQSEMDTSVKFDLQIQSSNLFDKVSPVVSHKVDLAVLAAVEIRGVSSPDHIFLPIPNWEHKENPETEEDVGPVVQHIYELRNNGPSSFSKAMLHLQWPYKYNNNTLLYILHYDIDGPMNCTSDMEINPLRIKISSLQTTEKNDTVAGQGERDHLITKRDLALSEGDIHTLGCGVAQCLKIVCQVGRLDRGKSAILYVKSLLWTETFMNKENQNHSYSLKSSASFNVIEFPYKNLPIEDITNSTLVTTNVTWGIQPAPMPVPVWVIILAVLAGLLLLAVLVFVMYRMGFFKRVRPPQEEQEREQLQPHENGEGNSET", "T1 chain 2": "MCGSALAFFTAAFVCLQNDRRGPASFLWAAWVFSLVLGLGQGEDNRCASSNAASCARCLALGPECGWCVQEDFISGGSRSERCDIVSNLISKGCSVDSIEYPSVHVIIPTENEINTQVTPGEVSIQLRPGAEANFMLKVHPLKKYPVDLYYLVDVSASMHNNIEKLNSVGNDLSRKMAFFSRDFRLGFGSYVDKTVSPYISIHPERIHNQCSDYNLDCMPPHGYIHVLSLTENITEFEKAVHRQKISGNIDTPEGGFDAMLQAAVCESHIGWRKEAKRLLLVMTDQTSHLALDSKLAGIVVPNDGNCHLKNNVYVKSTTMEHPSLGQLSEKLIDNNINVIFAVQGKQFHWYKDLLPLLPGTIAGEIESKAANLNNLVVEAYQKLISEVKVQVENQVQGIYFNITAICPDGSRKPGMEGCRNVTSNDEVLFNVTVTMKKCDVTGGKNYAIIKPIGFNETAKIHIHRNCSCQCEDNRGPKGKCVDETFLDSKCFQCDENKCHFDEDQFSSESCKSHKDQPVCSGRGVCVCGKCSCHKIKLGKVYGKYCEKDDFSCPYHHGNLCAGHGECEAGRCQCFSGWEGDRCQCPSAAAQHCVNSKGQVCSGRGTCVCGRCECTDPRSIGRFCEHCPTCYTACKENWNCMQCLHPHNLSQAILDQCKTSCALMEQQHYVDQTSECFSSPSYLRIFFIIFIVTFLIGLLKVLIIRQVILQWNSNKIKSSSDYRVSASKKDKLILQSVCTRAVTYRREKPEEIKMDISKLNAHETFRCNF", "experiment": "FACS U251 cells"}, "C1q": {"target": "C1q (human, UniProt P02745)", "sequence (P02745 23-245, chain 1 of 3)": "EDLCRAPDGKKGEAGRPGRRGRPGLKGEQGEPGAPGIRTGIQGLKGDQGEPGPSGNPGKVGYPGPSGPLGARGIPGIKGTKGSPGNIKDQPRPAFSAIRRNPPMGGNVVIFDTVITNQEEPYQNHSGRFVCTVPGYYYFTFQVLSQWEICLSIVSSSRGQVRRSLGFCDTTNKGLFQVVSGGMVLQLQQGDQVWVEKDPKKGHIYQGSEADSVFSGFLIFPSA", "sequence (P02746 28-253, chain 2 of 3, further chain)": "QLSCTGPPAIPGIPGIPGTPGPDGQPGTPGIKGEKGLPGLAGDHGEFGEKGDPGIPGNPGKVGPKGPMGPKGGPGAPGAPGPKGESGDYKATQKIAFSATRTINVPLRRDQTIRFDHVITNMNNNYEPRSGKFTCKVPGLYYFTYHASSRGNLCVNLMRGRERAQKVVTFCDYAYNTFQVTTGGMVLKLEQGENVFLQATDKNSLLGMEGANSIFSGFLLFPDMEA", "sequence (P02747 29-245, chain 3 of 3, further chain)": "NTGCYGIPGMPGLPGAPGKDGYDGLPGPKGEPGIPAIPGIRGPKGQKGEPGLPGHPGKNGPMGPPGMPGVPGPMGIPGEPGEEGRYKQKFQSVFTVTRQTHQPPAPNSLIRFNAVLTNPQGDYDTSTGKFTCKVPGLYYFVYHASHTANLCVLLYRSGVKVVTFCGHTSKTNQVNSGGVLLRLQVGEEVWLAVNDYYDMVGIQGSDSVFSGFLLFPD", "experiment": "other, up to 30 ug/mL"}},
  "note": "Several values for one entry are separate records, joined by “and”; a condition that tells them apart may be missing. Equal entries are not always repeated.",
  "data": [
    {"binder": "ADWA11 2.4 IgG (antibody) chain 1: EVQLVESGGGLVQPGGSLRLSCAASGFNIKDYYMNWVRQAPGKGLEWVGWIDPDQGNTIYEPKFQGRFTISADTSKNSAYLQMNSLRAEDTAVYYCARRLLMDYWGQGTLVTVSSASTKGPSVFPLAPSSKSTSGGTAALGCLVKDYFPEPVTVSWNSGALTSGVHTFPAVLQSSGLYSLSSVVTVPSSSLGTQTYICNVNHKPSNTKVDKKVEPKSCDKTHTCPPCPAPEAAGAPSVFLFPPKPKDTLMISRTPEVTCVVVDVSHEDPEVKFNWYVDGVEVHNAKTKPREEQYNSTYRVVSVLTVLHQDWLNGKEYKCKVSNKALPAPIEKTISKAKGQPREPQVYTLPPSREEMTKNQVSLTCLVKGFYPSDIAVEWESNGQPENNYKTTPPVLDSDGSFFLYSKLTVDKSRWQQGNVFSCSVMHEALHNHYTQKSLSLSPGK chain 2: DIQMTQSPSSLSASVGDRVTITCRSTKSLSHFNGNTYLFWYQQKPGKAPKRLIYYMSSLASGVPSRFSGSGSGTDFTLTISSLQPEDFATYYCQQSLEYPFTFGGGTKVEIKRTVAAPSVFIFPPSDEQLKSGTASVVCLLNNFYPREAKVQWKVDNALQSGNSQESVTEQDSKDSTYSLSSTLTLSKADYEKHKVYACEVTHQGLSSPVTKSFNRGEC", "values": [
      {"measurement": "EC50", "setting": "human integrin avb8", "result": "0.256 nM and 0.126 nM"},
      {"measurement": "binding result", "setting": "C1q", "result": "no binding"}
    ]}
  ]
}
